Results as given in the DeepSol protein solubility set.

Assay: soluble on expression in E. coli; label from the status in PepcDB or PDB records

| Sequence | soluble on expression in E. coli |
| --- | --- |
| MSLAQLDKNDPARGVLAAIAANASKIAEYDPRVRADEYDSVHQMRVATRELRSHLQTFEGILGGEDYLNLEKELKVLANILGRARDAEVVEERLSNLINTEVGDSIEEETKKELLEDLGAEYRREHERVVRALDNDRYTDLLQALENLLVDPPLITEVEEPEATEAPESAETTESTDVSEATEEADAEAESVEEATEQEESADAPESADLDALDEEYSPGSQAPVEEPKEPKKVDAALVLLEHLDKAHVKLVKLEKKARSQWDDLSIPMLEREENFHNLRKAAKKLRYSAEAVGKATTVETKKLYKACSGLQSVLGDYQDAITSRNELLRRAQVARRQGRDTFAYGILYQHEQTLSREYLTGYSDAFKSVEKAYAKLAEDTAKRSKKNKRKEGHHHHHH | not soluble |
| MSLATAAPFVSDQAEAKGFVEGSTLDLKLRNYYYNRDRKNNPAPGGRSDKDWTQGIWANFSTGYTQGTIGVAAEAFGYGALRLWGPDKYSGSGNLVTDSNGDNEATQGKFGGAVKFRVSKTELKVGDMQPTSPVFAVGGSRILPQTASGLSLQSSEIAGLDLEAGHFYSGTSQDDTSHNGSIWATYANGFNGLKANSADFLGGKYAITDGLGVAFYAAKLEDIWDQYYGNVNYALPLGNDQSLAFDVNLYRTLDEGSSKADSINNTTYSASAAYSFLAAHTVTVAYQKVDGDTPFDYIGIGDNNRGGDSIFLANSVQYSDFNGPGEKSWQIRYDLNMTPYGVPGLSFMTRYLNGDNIDGTKVDASSLYANMYGADGKHHETNLEAKYVVQAGPAKDLSFRMRQAWHRGNDAQSDGDVNEFRLIVDYPISILKGIITITTDPNSSSVDKLAAALEHHHHHH | soluble |
| MSLATKVTLKDVAARAGVSYQTVSKVLNGEMQVAPETMERIQAAVQELGYRPNRIARNMRAGRSFMIGYSWTQTEPGQVNHILDQFLSSMVREAGAVNYFVLPFPFSEDRSQIDIYRDLIRSGNVDGFVLSSINYNDPRVQFLLKQKFPFVAFGRSNPDWDFAWVDIDGTAGTRQAVEYLIGRGHRRIAILAWPEDSRVGNDRLQGYLEAMQTAQLPIETGYILRGEGTFEVGRAMTLHLLDLSPERRPTAIMTLNDTMAIGAMAAARERGLTIGTDLAIIGFDDAPMVQYLFPPLSSVRQPIAEAGRKCIELLVAIVEGREPEQKHILLQPSLIIRASEGHHHHHH | soluble |
| MSLCELLGMSANVPTDICFSFTGLMQRGGKTGPHRDGWGIAFYEGKGFRTFKDPNPSSQSKIAELVQQYPIKSRAVISHIRQANRGGVNLENTHPFTRELWGQYWTFAHNGQLTGYQNLVTGRHRPVGETDSELAFCWLLNQMEQCYPEGPQDWPEMLRYVAQCCDELRALGVFNMLLSNGEYVMAYCTNHLYWITRRAPFGCAALLDEDVEINFQEETTPNDVVSVIATQPLTGNETWQRMKPGQFAFFHFGERIEDNAHVLMDVGFAPNRPGCQAPSQPLDEGGSHHHHHH | soluble |
| MSLCQEKEQDIQKEISYAEKHNNQRRIEGLNKALSEVRANCTDSKLRAEHQKKIAEQKEEVAERQRDLAEAKAKGDADKIDKRERKLAEAQDELKKLEHHHHHH | not soluble |
| MSLCTPLTSYSGFQAIEAKPAEMKVGEDSKSTLMEKLGSPSAVSTFDNNTWYYISQTTDRVAFYMPRVIKRDVVAIKFNPADEKVASVDTYTLQDGKVIAYNGRETPTRGREMTILEQLLGNVGRGGMLPQDDTAPGQRPGDREGHHHHHH | soluble |
| MSLDATYVETSTSKLGCRSAVADQVEKFQFGQYECDAPHKLYNSLIDNAKKFIESPDFILLGGDLIAHGLNVTKQMLIDNFNNITNPIEKKYPNTKIYITLGNNDFQKNYGSFDTDLTDFETVFEIFGKWMNTEQAETFKKGGYYYADFPSSNFRFLFLNTVIYSRKRTFNETLTDPYDQFAWIRKMYKDAVQKGYKVGIALHIPPGVVYTDNKVGWNLKYINTFAEIMKECDFSFIISGHSHTDMILPLYTPNSDTDNILYSLSAPSVSPTHYNNPGFRHYLLDQEIIKDFIQYYADIMLNPSELNWEIEYKFSEAYKTQNITRNSINDAVKWIRSTGEGQWRYRERVYSREGHHHHHH | soluble |
| MSLDDSVFVGHLKDVTGATGFVGKLYGEGVNDALVWINAHGGIDGTRLDFESVDYAYEVPRAIALYKKWTSQNKMVALQGWGTGDTEALISFVAKDKIPVLSGSYSGHLTDPTGKNPKTQKPAPYNFFYGPSYSDACRALVQWAEGDWKAKGKEGKPKFIHAGDNHPYPNAPKEACADFATELGFEVLPPVVVSLKPGDFKAQCLTIKQSGANYVYVANLGPSVVSLVKSCKTVGTDAQYMANIWGGDSETQKTLGADGDGYVFVAANAFWGDDAPGLALVREIAGSETPRTHHYIRGVCSTFYMKEAMEWAKAHGGLTGESIRNAMYARKDWVPKGLEGVCIPSTWTPEDHRGMTKVFIYQMQNGSEIHKIAETDLPRRDDWLGYEGHHHHHH | not soluble |
| MSLDDYTVRVRVPGGEWKDLFEYNVQVDMDRVQDASMVQFDMGSLVEVMVKKNNGTIHEVDIRPQVNDIRYVQYKNVITFMLDKPRYLSVEFNGDRLHNLHVFANPMETETYSKEEKGVMYFGPGVHRPKDLPNNQIRIPSNTTVYLAPGAVVKAKLWVDKAENVRIVGRGILDHPIRGIEITDSKNVVVDGITVINPDHYTVFGGGSVGVTIRNLKSFSCKGWSDGIDMMCCHDVLIDNVFMRNSDDCIALYNHRWNWWGGSDNITVQNSILWADIAHPINVGGHGDPESLIGETIENLIFRNIDILEHDEDDVPYQGCMAIDAGDRNRVKNILFEDIRVESIQEGKLFHINIRFNPKYDKQPGQSIDGVTFRNITYNGVGENPSLIKGLDKERMVRNITFENVVVNGEKIKDLKGFITNEYIEGIKIKEGHHHHHH | not soluble |
| MSLDEIKSGKYKHGDKLPTEKELMERFNASRETVRKALERLVVKNLVIRKPGLGTFVNIEKKNKVVGILVQQITSYIFPYIALGAEEVLFANGYKMLLGNASEDPHKERQIINEWLEVGVDGLIIDPVYSATKRSNRDLIEDMAKKGTKVVLVHTNWDIEGVGSVVLDDWYGGEKAAEIFYQYGHRNVAVLYKTIHLPSVVRAQAFLKRGRELGFEKVHEKSFHVSEFTGIVMQSAFELLSLPKDQRPTAVFCYNDATALQFFLAAKRMGLKIPEDVSVIGFDDAPIGDFREILTTFEHPKEEVGKKAVEILLKMIDGEKPEKYVFKPKLIMRESVTYPKEGHHHHHH | soluble |
| MSLDEIVGIGFKRADAIARNMGVHPHSKYRIHSGIKYMLNTFQGEGHTYAPGVKLIQRAEELLRVEEGQVEGAIQELALNQEIQLERIDDEIIVYSMPYYYAESNVCKKLISLAQVELDPIEMDIDEELQKIEQAEEMTLAKQQKEAIKEAIENGISVITGGPGTGKTTTINSLIKVFEKLELKMLLAAPTGRASKRMTEATGKESKTIHRLLELGFGDDREGMLFQRNEDNPLDCHVIIIDEVSMVDIILMNSLMKSIARGTRVVLVGDVDQLPSVGAGNVLRDIIDSKVVKTIRLTEIFRQAQESMIVVNAHRINQGLYPQLNEKQKDFYFMKRNAKEDVLATVVELVRDRLPKHYQFDALRDIQVLTPMKKGETGTLNLNKELQAALNPPNVSKAEKDLKEKIFREGDKVMQIKNNYTLKWRCLDPMAEEQKGEGVFNGDIGYVQSIDTEAEELVILFDDQKQVNYSFTQLDELELAYSVTIHKSQGSEFPVVVIPITWGPPMLLTRNLLYTAVTRARSLVVLVGVESYLKKMVDNNKIIERYSGLGRRLGKYFEEGHHHHHH | not soluble |
| MSLDENIVKTGSNEMELVDFRIFKQGHDKVYEGIYGVNVSKVREIIKIPSLTELPGVPDYIEGIFDLRGVVIPVVNLAKWMQITEPESTMLKPRVIITEFSNILIGFIVHEAKRIRRINWKDIEPATFSTGSGALDKGKITGVTRIENDEVLLILDLESVVEDLGIYAPKTDIDFGKIEKFTGTALILDDSMTARKRVKEMMQQMGFQVVEAKDGVEGINKLEELSQIYGESLNDTLKIIVSDVEMPQMDGFHFAARIKEDPRFKDIPIVFNSSLSNEFMNEKGVQEAGGEGYLVKFNASDFFNEIAKVIKKHQSQEGHHHHHH | soluble |
